These results are taken from the supplement of paper PMC7877785.

A short description of this data set: self-splicing fitness, log relative to wild type (ln ratio); higher = more splicing; Tetrahymena group I intron in knt gene, E. coli kanamycin selection, DiMSum; sequences stand for … in CUCUCU…GGAGGGAAAAGUUAUCAGGCAUGCACCUGGUAGCUAGUCUUUAAACCAAUAGAUUGCAUCGGUUUAAAAGGCAAGACCGUCAAAUUGCGGGAAAGGGGUCAACAGCCGUUCAGUACCAAGUCUCAGGGGAAACUUUGAGAUGGCCUUGCAAAGGGUAUGGUAAUAAGCUGACGGACAUGGUCCUAACCACGCAGCCAAGUCCUAAGUCAACAGAUCUUCUGUUGAUAUGGAUGCAGUUCACAGACUAAAUGUCGGUCGGGGAAGAUGUAUUCUUCUCAUAAGAUAUAGUCGGACCUCUCCUUAAUGGGAGCUAGCGGAUGAAGUGAUGCAACACUGGAGCCGCUGGGAACUAAUUUGUAUGCGAAAGUAUAUUGAUUAGUUUUGGAGUACUCGUGGUCG
Summed up: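 A randomised library covering all eight P1ex-region intron nucleotides was built with the intron in the knt kanamycin-resistance gene on pET-22b(+) and held in E. coli BL21(DE3). Cells were grown overnight at 37°C or 30°C on LB agar, with or without 25 μg/mL kanamycin, plus 100 μg/mL carbenicillin, 50 μM IPTG and 0.2% rhamnose, and pooled colonies were amplicon-sequenced on an Illumina HiSeq 2500. DiMSum fitness is the error-weighted combination of wild-type-normalised replicate fold changes, kanamycin versus none.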

± gives the uncertainty stated by the source.

For CGGAAGCAAUAUUACGCAAG, the “self-splicing fitness (ln)” value (30 °C) was -0.584 ± 0.18 and the “self-splicing fitness (ln)” value (37 °C) is -1.95 ± 0.43. With CGGAAGCAAUAUUACGCACC, the “self-splicing fitness (ln)” value by setting is: (30 °C) -2.4 ± 0.32; (37 °C) -1.19 ± 0.27. On the same counts, the results for CGGAAGCAAUAUUACGCCUU are -3.2 ± 0.17 and -3.48 ± 0.3.

On to CGGAAGCAAUAUUACGCGAA, for which the “self-splicing fitness (ln)” value was -2.86 ± 0.27 (30 °C) and -1.46 ± 0.32 (37 °C). For CGGAAGCAAUAUUACGCGUA, the “self-splicing fitness (ln)” value (30 °C) is -2.96 ± 0.29 and the “self-splicing fitness (ln)” value (37 °C) was -2.47 ± 0.25. The corresponding values for CGGAAGCAAUAUUACGCUCA are -1.59 ± 0.17 and 0.105 ± 0.18. Regarding CGGAAGCAAUAUUACGCUGC, the “self-splicing fitness (ln)” value by setting is: (30 °C) -2.35 ± 0.41; (37 °C) -1.78 ± 0.2. Consider CGGAAGCAAUAUUACGGAAC, for which the “self-splicing fitness (ln)” value (30 °C) is -2.23 ± 0.34. For CGGAAGCAAUAUUACGGGCG, the “self-splicing fitness (ln)” value by setting is: (30 °C) -0.796 ± 0.091; (37 °C) -0.481 ± 0.12.

CGGAAGCAAUAUUACGGUAG: the “self-splicing fitness (ln)” value is -0.312 ± 0.072 (30 °C) and -0.214 ± 0.096 (37 °C).

For the sequence CGGAAGCAAUAUUACGUAAC, where the note is “37 °C”, the “self-splicing fitness (ln)” value was -2.71 ± 0.27.

For the sequence CGGAAGCAAUAUUACGUGGA, the “self-splicing fitness (ln)” value by setting is: (30 °C) -2.79 ± 0.14; (37 °C) -2.93 ± 0.21. The corresponding values for CGGCAGCAAUAUUACGAGAU are -1.99 ± 0.19 and -2.81 ± 0.27. Turning to CGGCAGCAAUAUUACGAGUG, the “self-splicing fitness (ln)” value by setting is: (30 °C) -1.03 ± 0.086; (37 °C) 0.319 ± 0.1. As for CGGCAGCAAUAUUACGCCGA, the “self-splicing fitness (ln)” value was -2.87 ± 0.29 (30 °C) and -2.76 ± 0.34 (37 °C). On the same counts, the results for CGGCAGCAAUAUUACGCGGU are -4.26 ± 0.25 and -3.33 ± 0.19. Take CGGCAGCAAUAUUACGCUGC: the “self-splicing fitness (ln)” value (30 °C) is -3.47 ± 0.32 and the “self-splicing fitness (ln)” value (37 °C) is -1.5 ± 0.19. Turning to CGGCAGCAAUAUUACGGAGA, the “self-splicing fitness (ln)” value was -1.63 ± 0.3 (30 °C) and -1.62 ± 0.29 (37 °C). For the sequence CGGCAGCAAUAUUACGGCCU, the “self-splicing fitness (ln)” value (30 °C) is -1.23 ± 0.092 and the “self-splicing fitness (ln)” value (37 °C) was -0.41 ± 0.088.

For CGGCAGCAAUAUUACGGGAA, the “self-splicing fitness (ln)” value was -2.49 ± 0.15 (30 °C) and -1.97 ± 0.16 (37 °C). The corresponding values for CGGCAGCAAUAUUACGGGCG are -1.85 ± 0.13 and -0.898 ± 0.14. For the sequence CGGCAGCAAUAUUACGGUUU, the “self-splicing fitness (ln)” value is, setting by setting: (30 °C) -2.16 ± 0.077; (37 °C) -0.769 ± 0.089.

As for CGGCAGCAAUAUUACGUAAU, the “self-splicing fitness (ln)” value reads like this: (30 °C) -3.38 ± 0.18; (37 °C) -1.69 ± 0.22.

For the sequence CGGCAGCAAUAUUACGUACC, the “self-splicing fitness (ln)” value by setting is: (30 °C) -2.07 ± 0.19; (37 °C) -1.61 ± 0.25. As to CGGCAGCAAUAUUACGUCAG, the “self-splicing fitness (ln)” value was -2.04 ± 0.099 (30 °C) and -0.000984 ± 0.1 (37 °C). On to CGGCAGCAAUAUUACGUCUG, for which the “self-splicing fitness (ln)” value was -2.32 ± 0.21 (30 °C) and -1.86 ± 0.19 (37 °C). Consider CGGCAGCAAUAUUACGUUCC, for which the “self-splicing fitness (ln)” value is, setting by setting: (30 °C) -2.59 ± 0.14; (37 °C) -1.77 ± 0.21. On to CGGGAGCAAUAUUACGAACA, for which the “self-splicing fitness (ln)” value (37 °C) is -1.37 ± 0.22. CGGGAGCAAUAUUACGAAUG: the “self-splicing fitness (ln)” value (30 °C) was -3.6 ± 0.21 and the “self-splicing fitness (ln)” value (37 °C) was -1.1 ± 0.15.

Turning to CGGGAGCAAUAUUACGACUG, the “self-splicing fitness (ln)” value reads like this: (30 °C) -3.19 ± 0.22; (37 °C) -1.55 ± 0.18. On the same counts, the results for CGGGAGCAAUAUUACGAUGC are -3.44 ± 0.2 and -2.91 ± 0.4. For CGGGAGCAAUAUUACGAUUA, the “self-splicing fitness (ln)” value (37 °C) is -3.69 ± 0.42.

Take CGGGAGCAAUAUUACGCCUA: the “self-splicing fitness (ln)” value is -2.84 ± 0.27 (30 °C) and -2.14 ± 0.19 (37 °C). On to CGGGAGCAAUAUUACGCUUC, for which the “self-splicing fitness (ln)” value (37 °C) is -2.21 ± 0.31. As to CGGGAGCAAUAUUACGCUUG, for the setting “37 °C”, the “self-splicing fitness (ln)” value is -2.34 ± 0.31. In the case of CGGGAGCAAUAUUACGUCUC, the “self-splicing fitness (ln)” value (30 °C) is -2.33 ± 0.24. On to CGGGAGCAAUAUUACGUUUU, for which the “self-splicing fitness (ln)” value runs as follows: (30 °C) -2.19 ± 0.18; (37 °C) -1.53 ± 0.27. In the case of CGGUAGCAAUAUUACGAACA, the “self-splicing fitness (ln)” value is -0.899 ± 0.16 (30 °C) and -0.395 ± 0.2 (37 °C). The corresponding values for CGGUAGCAAUAUUACGAAUA are -2.04 ± 0.35 and -1.67 ± 0.3. The corresponding values for CGGUAGCAAUAUUACGACAG are -0.475 ± 0.15 and 0.021 ± 0.16.
